Results taken from patent US20100075297A1, “PHOTOSENSITIVE POLYPEPTIDE AND METHODS OF THEIR PRODUCTION AND USE” (priority 2006, published 2010).
“Also recorded” adds a separate entry of the source. *1 amine or outer side, *2 acyl side, *3 side chain or, on linkers, in order; H or OH if unused. Where a SMILES comes first, the peptide text is derived from it. [ ]: non-standard residue; d: D form. The star is where a group is joined. X2 = COc1cc(CN([C@@H](Cc2ccc(OP(=O)(O)O)cc2)C(=O)[*:2])[*:1])c([N+](=O)[O-])cc1OC; Gly(N-Dmnb) = COc1cc(CNCC(=O)O)c([N+](=O)[O-])cc1OC; X1 = CN(C)c1ccc(-c2cnc(-c3ccc(S(=O)(=O)*)cc3)o2)cc1; pY = N[C@@H](Cc1ccc(OP(=O)(O)O)cc1)C(=O)O; coumarin = not defined here; Dab = NCC[C@H](N)C(=O)O

Columns and labels:
Lck SH2 domain [1] = molecular target: T1, Lck SH2 domain (Homo sapiens, UniProt P06239); assay: Competition assay with dapoxyl-labeled sensor peptide A for Kd at the Lck SH2 domain; format: binding
T1 construct: made in house
Method: By contrast, the difference in affinity between 5 (43±10 μM) and 6 is somewhat more modest. The caged derivative 4 is converted to the high affinity form 6 upon photolysis. Longer photolysis times generate larger yields of the active peptide 6 (see “Experimental procedures” section below). The latter provides a straightforward means to deliver desired quantities of the active species.
The competition assay schematically illustrated in FIG. 7 was employed to determine Kds for peptides 4, 5, and 6. Experiments were conducted using 3 μM peptide A, 20 μM DTT, 5 μM GST-Lck-SH2 (in 10% glycerol), and 33.3 mM of Tris buffer (pH 7.5) in a total assay volume of 150 μL. The fluorescence of the solution was monitored on a Photon Technology QM-1 spectrofluorimeter at 30° C. at λex=395 nm and λem=535 nm. The fluorescence of the peptide A solution was measured in the presence of variable concentrations of peptides 4, 5, or 6. Control assays in the absence of GST-Lck-SH2 were also performed at the same concentrations. The following Kdx values were obtained: peptide 4 (127±6 μM), peptide 5 (43±10 μM), and peptide 6 (2.6±0.2).
and [St]=total [A], Fx=fluorescence at a given concentration of peptide X (i.e. 4, 5, or 6), Fmax=fluorescence in the absence of peptide X, F0=fluorescence in the absence of Lck-SH2 domain, Kd=binding constant of A/Lck-SH2 domain, [Pt]=total [Lck-SH2], [P]=uncomplexed [Lck-SH2], [Xt]=total [4, 5, or 6], [PX]=[4, 5, or 6/Lck-SH2 complex], [SP]=[A/Lck-SH2 complex], Kdx=dissociation constant of peptide 4, 5, or 6/Lck-SH2 domain complex.

Lck SH2 domain [2] = molecular target: T1, Lck SH2 domain; assay: Photolysis of caged peptide 4, read out by displacement of sensor A from the Lck SH2 domain; format: binding
Method: Experiments were conducted using 3 μM peptide A, 20 μM DTT, 5 μM GST-Lck-SH2 (in 10% glycerol), peptide 4 (32 μM) in 33.3 mM Tris buffer (pH 7.5) and a total assay volume 150 μL. The fluorescence of the solution was monitored on a Photon Technology QM-1 spectrofluorimeter at 30° C. at λex=395 nm and λem=535 nm. Caged peptide (4) was irradiated using an Oriel Mercury Arc Lamp (Model 69907) equipped with a 360 nm colored glass filter (300-400 nm band pass) and an IR filter for various time periods (0-30 min).
An aliquot from each irradiation time period was added to the assay solution. A decrease in fluorescence intensity is indicative of displacement of the SH2 domain sensor A from the SH2 domain by uncaged peptide (6) (see FIGS. 7 and 8). An analogous set of experiments was performed with peptide 5. The formation of uncaged peptide 6 from caged peptides 4 and 5 was confirmed by analytical HPLC (comparison with the retention time of peptide 6 prepared by solid phase peptide synthesis) and by mass spectrometry.

α-chymotrypsin = molecular target: T2, α-chymotrypsin (Bos taurus, UniProt P00766); assay: Chymotrypsin continuous fluorescence substrate assay; format: biochemical
T2 construct: purchased Fisher or Aldrich (general materials statement only)
Method: The peptide 9 stock solution contained 5% DMSO and the assay solution contained less than 1% DMSO. The reaction was monitored on a Photon Technology QM-1 spectrofluorimeter at 30° C. using a λex=380 nm and a λem=460 nm.
Assays were conducted using 25 μM light exposed caged peptide 10 in 50 mM Tris buffer (pH 8.0), and 100 mM NaCl, 5 mM CaCl2, and 0.01% Tween-20 to which α-chymotrypsin was added to initiate the reaction. The fluorescence of the solution was monitored on a Photon Technology QM-1 spectrofluorimeter at 30° C. at λex=380 nm and λem=460 nm. Caged peptide 10 was irradiated using an Oriel Mercury Arc Lamp (Model 69907) equipped with a 360 nm colored glass filter (300-400 nm band pass) and an IR filter for various time periods (0, 5, 10, 15, and 20 min).

GST-Lck-SH2 [3] = molecular target: GST-Lck-SH2 (UniProt P06239); assay: fluorescence of dapoxyl peptide A with Lck SH2 domain
GST-Lck-SH2 [4] = molecular target: GST-Lck-SH2 (UniProt P06239); assay: fluorescence, 3 µM peptide A with 5 µM GST-Lck-SH2 and 32 µM unphotolysed peptide 4, t=0 min
[5] = molecular target: T3, cAMP-dependent protein kinase (PKA) catalytic subunit (Homo sapiens, UniProt P17612); assay: PKA [γ-33P]ATP radioactive phosphorylation assay; format: biochemical
T3 construct: made in house
Method: PKA assays were performed in triplicate. 20 μL of a 30 μM solution of 12, which had been photolyzed for different time periods (5, 10, 15, 20, 25, 30 min), was added to each well of 96 multi-well assay plate containing 20 μL assay buffer [100 mM MOPS, 150 mM KCl, 12.5 mM MgCl2 and 150 μM cold ATP supplemented with 70-163 μCi/well [γ^−33P]ATP for radioactive detection]. 10 μL enzyme diluted buffer containing 100 mM MOPS (pH 7.1), 0.125 mg/mL bovine serum albumin, and 8 nM PKA catalytic subunit were added to initiate the reaction. Total reaction volume was 50 μL. After a 12-min incubation time at 30° C., 100 μL of 6% phosphoric acid was added to each well to stop the reaction (total volume: 150 μL). Following an additional 5 min incubation period at ambient temperature, 75 μL from each reaction well was transferred into each well of a Unifilter (P81 cellulose phosphate paper) assay plate. Each well was washed four times with 0.1% phosphoric acid in water. Scintillation solution was added to each well and ^33P-incorporation measured by scintillation counting with a MicroBeta™ TriLux & MicroBeta JET (Perkin Elmer). The formation of the photouncaged peptide was confirmed by ESI mass spectrometry.
Assays were performed as described above, except that the enzymatic reaction was stopped at different time points (2, 4, 6, 8, 10, 12, 14 min) by adding 6% phosphoric acid.

[6] = test system: H2N-Leu-Arg-Arg-Ala-N(DMNB)Ser-Leu-Gly-NH2 (12)
[7] = test system: H2N-Leu-Arg-Arg-Ala-Ser-Leu-Gly-NH2 (11)
[8] = test system: Ac-Gly-Gly-Gly-N(DMNB)Phe-coumarin (10)
[9] = test system: Ac-Gly-Gly-Gly-Phe-coumarin (9)
[10] = 10 nM α-chymotrypsin, Tris pH 8.0, 30° C.

T1 sequence (P06239 127-224 limits assumed): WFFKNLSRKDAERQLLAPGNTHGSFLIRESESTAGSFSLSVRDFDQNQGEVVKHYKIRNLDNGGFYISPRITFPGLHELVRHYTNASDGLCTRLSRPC
GST-Lck-SH2, sequence (P06239 127-224 limits assumed): as above

**Q.** For `CC[C@H](C)[C@H](NC(=O)[C@H](CCC(=O)O)NC(=O)CN(Cc1cc(OC)c(OC)cc1[N+](=O)[O-])C(=O)[C@H](Cc1ccc(OP(=O)(O)O)cc1)NC(C)=O)C(=O)N[C@@H](CCNC(C)=O)C(=O)N[C@@H](C)C(N)=O` [peptide 4, Ac-pTyr-N(DMNB)Gly-Glu-Ile-Dab(Ac)-Ala-NH2] (Ac-[pY][Gly(N-Dmnb)]EI[Dab](Ac)A-NH2), which Kd (Lck SH2 domain [1]) is on record?
**A.** 127 ± 6 µM

**Q.** And the “effect of photolysis of the caged peptide in the competition assay” value (Lck SH2 domain [2]; irradiation 0-30 min, 300-400 nm band pass, 32 μM peptide 4)?
**A.** complete displacement of A from the Lck SH2 domain

**Q.** How did the Kd (Lck SH2 domain [1]) turn out when `CC[C@H](C)[C@H](NC(=O)[C@H](CCC(=O)O)NC(=O)CNC(=O)[C@H](Cc1ccc(OP(=O)(O)O)cc1)N(Cc1cc(OC)c(OC)cc1[N+](=O)[O-])C(C)=O)C(=O)N[C@@H](CCNC(C)=O)C(=O)N[C@@H](C)C(N)=O` [peptide 5, Ac-N(DMNB)pTyr-Gly-Glu-Ile-Dab(Ac)-Ala-NH2] (Ac-[X2]GEI[Dab](Ac)A-NH2) was run?
**A.** 43 ± 10 µM

**Q.** `CC[C@H](C)[C@H](NC(=O)[C@H](CCC(=O)O)NC(=O)CNC(=O)[C@H](Cc1ccc(OP(=O)(O)O)cc1)NC(C)=O)C(=O)N[C@@H](CCNC(C)=O)C(=O)N[C@@H](C)C(N)=O` [peptide 6, Ac-pTyr-Gly-Glu-Ile-Dab(Ac)-Ala-NH2] (Ac-[pY]GEI[Dab](Ac)A-NH2) was tested. Which Kd (Lck SH2 domain [1]) did it give?
**A.** 2.6 ± 0.2 µM

**Q.** For `CC[C@H](C)[C@H](NC(=O)[C@H](CCC(=O)O)NC(=O)CNC(=O)[C@H](Cc1ccc(OP(=O)(O)O)cc1)NC(C)=O)C(=O)N[C@@H](CCNS(=O)(=O)c1ccc(-c2ncc(-c3ccc(N(C)C)cc3)o2)cc1)C(=O)N[C@@H](C)C(N)=O` [peptide A, Ac-pTyr-Gly-Glu-Ile-Dab(Dapoxyl)-Ala-NH2] (Ac-[pY]GEI[Dab](X1)A-NH2), which “enhancement in fluorescence intensity relative to A in the absence of Lck-SH2 domain” value (Lck SH2 domain [2]; t=0 min photolysis, 3 μM A, 5 μM GST-Lck-SH2, 32 μM peptide 4) is on record?
**A.** 4 fold

**Q.** What does the source list for “Ac-Gly-Gly-Gly-N(DMNB)Phe-coumarin [peptide 10]”?
**A.** activity as chymotrypsin substrate after photolysis (α-chymotrypsin; photolysis 5, 10, 15, 20 min): increasing photolysis times converts increasing amounts of caged analogue 10 to the active substrate 9; activity as chymotrypsin substrate (α-chymotrypsin; without photolysis, 25 μM caged peptide): essentially inactive; also recorded: not hydrolyzed

**Q.** What does the source list for “Ac-Gly-Gly-Gly-Phe-coumarin (Ac-GGGF-coumarin; reading uncertain; also: printed as Ac-Gly-Gly-Gly-Phe-coumarin) [peptide 9]”?
**A.** Km (α-chymotrypsin; [10]): 6.3 ± 1.3 µM; Vmax (α-chymotrypsin; [10]): 7.2 µmol/min/mg; enhancement in fluorescence upon complete hydrolysis (α-chymotrypsin; λex=380 nm, λem=460 nm): ~6 fold

**Q.** For “Ac-pTyr-Gly-Glu-Ile-Dab(Dapoxyl)-Ala-NH2 (A) (peptide)”, which fold increase in fluorescence upon binding (GST-Lck-SH2 [3]) is on record?
**A.** 10 fold

**Q.** What about the fold enhancement in fluorescence intensity relative to A in the absence of Lck-SH2 domain (GST-Lck-SH2 [4]) of the same compound?
**A.** 4 fold

**Q.** What does the source list for “H2N-Leu-Arg-Arg-Ala-N(DMNB)Ser-Leu-Gly-NH2 [peptide 12]”?
**A.** activity as PKA substrate (phosphorylation) ([5]; in the absence of photolysis): fails to serve as a substrate; also recorded: not phosphorylated; activity as PKA substrate after photolysis ([5]; photolysis 5-30 min): generates the active substrate 11

**Q.** Which “PKA-catalyzed phosphorylation, [γ-33P]ATP assay” value [6] does the source give for PKA catalytic subunit here?
**A.** In the absence of photolysis, peptide 12 fails to serve as a substrate

**Q.** What about the “PKA-catalyzed phosphorylation, [γ-33P]ATP assay” value [7] of the same compound?
**A.** photolysis of 12 generates the active substrate 11 (as demonstrated by mass spectrometry) that, upon addition of PKA, furnishes the phosphorylated product

**Q.** α-chymotrypsin was tested. Which “hydrolysis by chymotrypsin, continuous fluorescence assay” value [8] did it give?
**A.** the caged derivative 10 is essentially inactive as a chymotrypsin substrate

**Q.** What about the Km [9] of the same compound?
**A.** Km=6.3±1.3 µM

**Q.** And the Vmax [9]?
**A.** Vmax=7.2µmol/min-mg
